Assay results published in article PMC2133042.
“And” between values parts separate entries of the source, which are not always exact repeats. Equal entries are not always repeated.

T1: KKFF (myc-tagged wild-type ERGIC-53) (human), P49257
T1 chain: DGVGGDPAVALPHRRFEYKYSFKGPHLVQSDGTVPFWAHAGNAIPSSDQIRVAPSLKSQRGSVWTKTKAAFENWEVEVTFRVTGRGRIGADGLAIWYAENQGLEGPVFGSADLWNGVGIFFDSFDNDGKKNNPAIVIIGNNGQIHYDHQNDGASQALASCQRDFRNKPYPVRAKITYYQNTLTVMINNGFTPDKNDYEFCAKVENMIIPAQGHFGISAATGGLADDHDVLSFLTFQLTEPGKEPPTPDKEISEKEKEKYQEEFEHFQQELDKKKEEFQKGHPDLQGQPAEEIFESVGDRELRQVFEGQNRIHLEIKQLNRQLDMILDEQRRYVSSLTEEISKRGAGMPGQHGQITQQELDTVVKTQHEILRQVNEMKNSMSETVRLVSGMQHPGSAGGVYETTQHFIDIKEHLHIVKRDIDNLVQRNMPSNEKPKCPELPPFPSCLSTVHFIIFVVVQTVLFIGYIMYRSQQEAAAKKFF

B1: KKFF (myc-tagged wild-type ERGIC-53), P49257 31-510 (natural protein)
chain: T1 chain

Tests used:
[1] = biological target: KKAA construct (myc-tagged ERGIC-53 with its cytoplasmic tail mutated to R2A6KKAA) (human)
[2] = biological target: T1, KKFF (myc-tagged wild-type ERGIC-53) …; details: remark: other sources report otherwise

Row | Molecule | stoichiometry N [1] | stoichiometry N [2]
1 | KKAA construct (myc-tagged ERGIC-53 with its cytoplasmic tail mutated to R2A6KKAA) (natural protein) | 2 and 6 | 
2 | B1 |  | 2 and 6
